Data published in IntAct's records for PubMed 29892012.

B1: Melanoma-associated antigen 8 (Homo sapiens), P43361 (parent)
chain: MLLGQKSQRYKAEEGLQAQGEAPGLMDVQIPTAEEQKAASSSSTLIMGTLEEVTDSGSPSPPQSPEGASSSLTVTDSTLWSQSDEGSSSNEEEGPSTSPDPAHLESLFREALDEKVAELVRFLLRKYQIKEPVTKAEMLESVIKNYKNHFPDIFSKASECMQVIFGIDVKEVDPAGHSYILVTCLGLSYDGLLGDDQSTPKTGLLIIVLGMILMEGSRAPEEAIWEALSVMGLYDGREHSVYWKLRKLLTQEWVQENYLEYRQAPGSDPVRYEFLWGPRALAETSYVKVLEHVVRVNARVRISYPSLHEEALGEEKGV
partner: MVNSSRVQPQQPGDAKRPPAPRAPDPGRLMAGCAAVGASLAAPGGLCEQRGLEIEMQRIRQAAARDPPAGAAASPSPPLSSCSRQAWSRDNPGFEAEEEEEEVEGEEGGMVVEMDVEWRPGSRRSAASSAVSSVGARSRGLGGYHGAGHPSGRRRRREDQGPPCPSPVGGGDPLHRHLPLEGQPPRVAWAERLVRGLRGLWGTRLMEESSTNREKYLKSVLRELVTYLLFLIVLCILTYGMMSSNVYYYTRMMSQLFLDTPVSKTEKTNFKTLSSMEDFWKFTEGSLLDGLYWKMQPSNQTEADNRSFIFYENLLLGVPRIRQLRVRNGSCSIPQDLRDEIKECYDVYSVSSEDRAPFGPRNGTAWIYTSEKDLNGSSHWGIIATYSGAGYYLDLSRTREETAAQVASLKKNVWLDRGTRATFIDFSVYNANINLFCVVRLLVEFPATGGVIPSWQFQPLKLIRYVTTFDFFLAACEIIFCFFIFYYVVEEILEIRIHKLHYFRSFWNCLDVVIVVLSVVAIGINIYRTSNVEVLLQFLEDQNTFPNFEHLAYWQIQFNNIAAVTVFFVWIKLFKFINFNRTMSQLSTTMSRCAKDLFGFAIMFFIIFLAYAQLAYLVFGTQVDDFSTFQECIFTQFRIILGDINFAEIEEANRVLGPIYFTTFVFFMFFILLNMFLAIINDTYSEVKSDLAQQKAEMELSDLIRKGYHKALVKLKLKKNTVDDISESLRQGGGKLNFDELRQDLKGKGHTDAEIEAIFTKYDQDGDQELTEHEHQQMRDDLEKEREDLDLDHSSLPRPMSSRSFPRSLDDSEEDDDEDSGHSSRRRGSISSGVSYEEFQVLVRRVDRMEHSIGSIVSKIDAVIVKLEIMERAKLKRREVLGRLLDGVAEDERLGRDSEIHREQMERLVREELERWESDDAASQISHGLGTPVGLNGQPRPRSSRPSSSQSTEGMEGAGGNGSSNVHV
B2: Late cornified envelope protein 1B (Homo sapiens), Q5T7P3 (parent)
chain: MSCQQNQQQCQPPPKCIPKCPPKCLTPRCPPKCPPKCPPVSSCCSVSSGGCCGSSSGGSCGSSSGGCCSSGGGGCCLSHHRRRRSHCHRPQSSGCCSQPSGGSSCCGGGSGQHSGGCC
partner: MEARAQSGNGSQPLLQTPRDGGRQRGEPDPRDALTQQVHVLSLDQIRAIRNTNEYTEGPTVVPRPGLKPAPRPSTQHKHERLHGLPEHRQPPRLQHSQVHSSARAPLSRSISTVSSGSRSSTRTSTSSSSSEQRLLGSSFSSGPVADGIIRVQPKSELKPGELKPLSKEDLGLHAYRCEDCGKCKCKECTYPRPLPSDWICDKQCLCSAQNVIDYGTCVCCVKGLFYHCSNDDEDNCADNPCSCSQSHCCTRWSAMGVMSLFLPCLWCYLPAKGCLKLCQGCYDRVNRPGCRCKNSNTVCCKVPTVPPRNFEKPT
B3: Abl interactor 2 (Homo sapiens), Q9NYB9 (parent)
chain: MAELQMLLEEEIPGGRRALFDSYTNLERVADYCENNYIQSADKQRALEETKAYTTQSLASVAYLINTLANNVLQMLDIQASQLRRMESSINHISQTVDIHKEKVARREIGILTTNKNTSRTHKIIAPANLERPVRYIRKPIDYTILDDIGHGVKWLLRFKVSTQNMKMGGLPRTTPPTQKPPSPPMSGKGTLGRHSPYRTLEPVRPPVVPNDYVPSPTRNMAPSQQSPVRTASVNQRNRTYSSSGSSGGSHPSSRSSSRENSGSGSVGVPIAVPTPSPPSVFPAPAGSAGTPPLPATSASAPAPLVPATVPSSTAPNAAAGGAPNLADGFTSPTPPVVSSTPPTGHPVQFYSMNRPASRHTPPTIGGSLPYRRPPSITSQTSLQNQMNGGPFYSQNPVSDTPPPPPPVEEPVFDESPPPPPPPEDYEEEEAAVVEYSDPYAEEDPPWAPRSYLEKVVAIYDYTKDKEDELSFQEGAIIYVIKKNDDGWYEGVMNGVTGLFPGNYVESIMHYSE
partner: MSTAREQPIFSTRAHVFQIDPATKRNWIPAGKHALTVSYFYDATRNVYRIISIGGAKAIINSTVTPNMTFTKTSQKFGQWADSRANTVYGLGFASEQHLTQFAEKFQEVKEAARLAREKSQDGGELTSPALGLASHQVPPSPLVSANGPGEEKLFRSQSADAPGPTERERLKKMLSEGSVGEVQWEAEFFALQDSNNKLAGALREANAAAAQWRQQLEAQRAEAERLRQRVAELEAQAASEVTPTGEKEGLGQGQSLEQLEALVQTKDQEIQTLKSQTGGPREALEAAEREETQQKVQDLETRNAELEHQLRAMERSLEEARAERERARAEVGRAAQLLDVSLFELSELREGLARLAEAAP
B4: Melanoma-associated antigen 8 (Homo sapiens), P43361 (parent)
chain: B1 chain
B5: Late cornified envelope protein 1B (Homo sapiens), Q5T7P3 (parent)
chain: B2 chain
partner: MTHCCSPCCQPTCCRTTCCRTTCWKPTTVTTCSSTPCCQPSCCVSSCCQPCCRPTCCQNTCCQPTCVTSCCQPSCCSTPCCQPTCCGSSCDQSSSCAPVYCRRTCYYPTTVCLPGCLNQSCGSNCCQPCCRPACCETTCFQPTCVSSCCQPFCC
B6: U3 small nucleolar RNA-associated protein 25 homolog (Homo sapiens), Q68CQ4 (parent)
chain: MGKRGSRSQSQLLNTLTKKQKKHLRDFGEEHPFYDRVSRKEAKPQICQLSESSDSSDSESDSESEPQQVSGYHRLLATLKNVSEEEEEDEEEEEEEDSIVDDAEMNDEDGGSDVSVEEEMAAESTESPENVALSADPEGKEDGEEPPGTSQTSPEEFTDAKHESLFSLETNFLEEESGDNSSLKASQDPFLQHVNKELKEKAIQAVATNPKTTHELKWPILGQLFFSSKFQKLETFKPPKDIDLKSLHLQKPLESTWTKTNSQFLSGPQKSSSPFTPLQKELFLIMNSYRDLFYPERTALKNGEEIRHVYCLHVINHILKANAQVLGNNSRRRSQKFGVGDDDDFRDQGLTRPKVLIVVPFREAALRVVQLFISLLEGDSKKKIIVSNKKRFQGEYGSDPEERPPNLKRPEDYEAVFVGNIDDHFRIGVAILQRSIRLYAPFYSSDILIASPLGLRTIIGGEGEKKRDFDFLSSIELLIIDQADIYLMQNWEHVLHLMNHMNLLPLDSHGVDFSRVRMWSLNNWSKYYRQTLLFGALQDAQINSVFNKYCVNMQGQVAVRNVPMTGSISHVLVQLPHVFQRMEAENLASVIDARFNFFVNKILPQYRDAVMSHTLIYIPSYFDFVRLRNYFKKEELNFTHICEYTQKSGVSRARHFFLQGEKQFLLFTERFHFYKRYTIKGIRNLIFYELPTYPHFYSEICNMLRATNRGEEATWTCTVLYSKYDAQRLAAVVGVERAAQMLQSNKNVHLFITGEK
B7: Late cornified envelope protein 1B (Homo sapiens), Q5T7P3 (parent)
chain: B2 chain
partner: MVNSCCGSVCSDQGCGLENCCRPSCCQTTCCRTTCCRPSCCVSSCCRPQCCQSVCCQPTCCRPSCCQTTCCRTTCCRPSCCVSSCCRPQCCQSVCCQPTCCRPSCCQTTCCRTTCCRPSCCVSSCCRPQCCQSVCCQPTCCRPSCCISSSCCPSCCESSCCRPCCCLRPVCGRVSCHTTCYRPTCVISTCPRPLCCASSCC
B8: Late cornified envelope protein 1B (Homo sapiens), Q5T7P3 (parent)
chain: B2 chain
partner: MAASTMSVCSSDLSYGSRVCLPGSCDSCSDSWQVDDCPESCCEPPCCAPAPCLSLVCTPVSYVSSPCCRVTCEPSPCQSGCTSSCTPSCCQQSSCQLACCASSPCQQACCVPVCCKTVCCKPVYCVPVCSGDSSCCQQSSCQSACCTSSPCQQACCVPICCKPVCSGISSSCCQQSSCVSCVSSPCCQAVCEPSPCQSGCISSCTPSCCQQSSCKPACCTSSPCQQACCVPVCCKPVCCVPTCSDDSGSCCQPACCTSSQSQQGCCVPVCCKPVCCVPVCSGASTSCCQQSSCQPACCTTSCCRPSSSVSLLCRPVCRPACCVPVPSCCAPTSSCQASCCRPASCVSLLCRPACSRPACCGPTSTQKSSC
B9: Zinc finger CCCH domain-containing protein 11A (Homo sapiens), O75152 (parent)
chain: MPNQGEDCYFFFYSTCTKGDSCPFRHCEAAIGNETVCTLWQEGRCFRQVCRFRHMEIDKKRSEIPCYWENQPTGCQKLNCAFHHNRGRYVDGLFLPPSKTVLPTVPESPEEEVKASQLSVQQNKLSVQSNPSPQLRSVMKVESSENVPSPTHPPVVINAADDDEDDDDQFSEEGDETKTPTLQPTPEVHNGLRVTSVRKPAVNIKQGECLNFGIKTLEEIKSKKMKEKSKKQGEGSSGVSSLLLHPEPVPGPEKENVRTVVRTVTLSTKQGEEPLVRLSLTERLGKRKFSAGGDSDPPLKRSLAQRLGKKVEAPETNIDKTPKKAQVSKSLKERLGMSADPDNEDATDKVNKVGEIHVKTLEEILLERASQKRGELQTKLKTEGPSKTDDSTSGARSSSTIRIKTFSEVLAEKKHRQQEAERQKSKKDTTCIKLKIDSEIKKTVVLPPIVASRGQSEEPAGKTKSMQEVHIKTLEEIKLEKALRVQQSSESSTSSPSQHEATPGARRLLRITKRTGMKEEKNLQEGNEVDSQSSIRTEAKEASGETTGVDITKIQVKRCETMREKHMQKQQEREKSVLTPLRGDVASCNTQVAEKPVLTAVPGITRHLTKRLPTKSSQKVEVETSGIGDSLLNVKCAAQTLEKRGKAKPKVNVKPSVVKVVSSPKLAPKRKAVEMHAAVIAAVKPLSSSSVLQEPPAKKAAVAVVPLVSEDKSVTVPEAENPRDSLVLPPTQSSSDSSPPEVSGPSSSQMSMKTRRLSSASTGKPPLSVEDDFEKLIWEISGGKLEAEIDLDPGKDEDDLLLELSEMIDS
B10: U3 small nucleolar RNA-associated protein 25 homolog (Homo sapiens), Q68CQ4 (parent)
chain: B6 chain
partner: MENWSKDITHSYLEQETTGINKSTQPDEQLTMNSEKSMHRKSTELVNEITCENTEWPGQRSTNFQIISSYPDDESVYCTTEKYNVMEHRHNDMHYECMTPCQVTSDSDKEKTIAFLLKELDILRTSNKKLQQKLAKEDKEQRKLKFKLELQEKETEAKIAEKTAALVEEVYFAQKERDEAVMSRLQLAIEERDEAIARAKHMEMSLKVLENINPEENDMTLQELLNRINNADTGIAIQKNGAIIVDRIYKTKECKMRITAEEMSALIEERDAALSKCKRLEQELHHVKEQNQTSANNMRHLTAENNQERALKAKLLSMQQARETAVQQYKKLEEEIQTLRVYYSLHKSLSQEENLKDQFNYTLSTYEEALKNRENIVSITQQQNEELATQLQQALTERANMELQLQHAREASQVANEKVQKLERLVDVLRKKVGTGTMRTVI
B11: Late cornified envelope protein 1B (Homo sapiens), Q5T7P3 (parent)
chain: B2 chain
partner: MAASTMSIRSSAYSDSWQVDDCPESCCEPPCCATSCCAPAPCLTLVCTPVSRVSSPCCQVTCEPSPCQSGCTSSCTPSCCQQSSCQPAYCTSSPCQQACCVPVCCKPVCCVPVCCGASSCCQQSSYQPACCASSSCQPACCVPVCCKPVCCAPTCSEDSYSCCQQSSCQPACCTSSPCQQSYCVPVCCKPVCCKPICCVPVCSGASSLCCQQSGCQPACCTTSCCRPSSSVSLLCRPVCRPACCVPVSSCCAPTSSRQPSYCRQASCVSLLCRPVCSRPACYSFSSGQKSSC

Variants of: B1
Settings: with pkd2_human PKD2, Q13563

Row | effect of a mutation on the interaction | Variant
1 | disrupting interaction strength | R218C

Variants of: B2
Settings: with spy2_human SPRY2, O43597

Row | effect of a mutation on the interaction | Variant
2 | with no effect | C16Y

Variants of: B3
Settings: with home3_human HOMER3, Q9NSC5

Row | effect of a mutation on the interaction | Variant
3 | with no effect | R373C

Variants of: B3
Settings: with home3_human HOMER3, Q9NSC5
Remark: another data set of the same source

Row | effect of a mutation on the interaction | Variant
4 | with no effect | E202K

Variants of: B4
Settings: with bex5_human BEX5, Q5H9J7
Chain of bex5_human BEX5, Q5H9J7 (Q5H9J7 whole entry): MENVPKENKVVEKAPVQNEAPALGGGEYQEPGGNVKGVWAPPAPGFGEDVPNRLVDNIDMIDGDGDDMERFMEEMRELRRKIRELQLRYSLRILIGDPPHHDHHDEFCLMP

Row | effect of a mutation on the interaction | Variant
5 | with no effect | R218C

Variants of: B5
Settings: with kra94_human KRTAP9-4, Q9BYQ2

Row | effect of a mutation on the interaction | Variant
6 | disrupting interaction strength | C16Y

Variants of: B6
Settings: with rufy1_human RUFY1, Q96T51
Chain of rufy1_human RUFY1, Q96T51 (Q96T51 whole entry): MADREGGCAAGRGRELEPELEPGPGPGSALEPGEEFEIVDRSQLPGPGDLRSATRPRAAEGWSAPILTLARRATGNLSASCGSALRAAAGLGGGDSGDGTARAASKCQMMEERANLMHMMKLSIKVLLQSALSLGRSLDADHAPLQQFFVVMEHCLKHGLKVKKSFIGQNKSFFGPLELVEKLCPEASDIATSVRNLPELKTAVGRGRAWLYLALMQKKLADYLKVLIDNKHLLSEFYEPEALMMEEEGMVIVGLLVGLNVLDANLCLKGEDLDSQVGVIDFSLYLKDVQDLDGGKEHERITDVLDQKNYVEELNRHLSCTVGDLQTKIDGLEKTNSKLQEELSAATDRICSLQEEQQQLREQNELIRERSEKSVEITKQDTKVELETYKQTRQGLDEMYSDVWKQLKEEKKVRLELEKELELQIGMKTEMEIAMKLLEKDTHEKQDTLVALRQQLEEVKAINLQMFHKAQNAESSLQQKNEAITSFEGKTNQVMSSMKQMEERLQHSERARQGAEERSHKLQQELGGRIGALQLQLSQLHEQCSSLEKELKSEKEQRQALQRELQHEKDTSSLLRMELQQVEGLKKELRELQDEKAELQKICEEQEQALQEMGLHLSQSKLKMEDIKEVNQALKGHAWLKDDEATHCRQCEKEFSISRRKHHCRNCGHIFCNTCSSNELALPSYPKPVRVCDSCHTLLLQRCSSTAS

Row | effect of a mutation on the interaction | Variant
7 | with no effect | D399E

Variants of: B7
Settings: with kr412_human KRTAP4-12, Q9BQ66

Row | effect of a mutation on the interaction | Variant
8 | disrupting interaction strength | C16Y

Variants of: B8
Settings: with kr107_human KRTAP10-7, P60409

Row | effect of a mutation on the interaction | Variant
9 | disrupting interaction strength | C16Y

Variants of: B9
Settings: with mlh1_human MLH1, P40692
Chain of mlh1_human MLH1, P40692 (P40692 whole entry): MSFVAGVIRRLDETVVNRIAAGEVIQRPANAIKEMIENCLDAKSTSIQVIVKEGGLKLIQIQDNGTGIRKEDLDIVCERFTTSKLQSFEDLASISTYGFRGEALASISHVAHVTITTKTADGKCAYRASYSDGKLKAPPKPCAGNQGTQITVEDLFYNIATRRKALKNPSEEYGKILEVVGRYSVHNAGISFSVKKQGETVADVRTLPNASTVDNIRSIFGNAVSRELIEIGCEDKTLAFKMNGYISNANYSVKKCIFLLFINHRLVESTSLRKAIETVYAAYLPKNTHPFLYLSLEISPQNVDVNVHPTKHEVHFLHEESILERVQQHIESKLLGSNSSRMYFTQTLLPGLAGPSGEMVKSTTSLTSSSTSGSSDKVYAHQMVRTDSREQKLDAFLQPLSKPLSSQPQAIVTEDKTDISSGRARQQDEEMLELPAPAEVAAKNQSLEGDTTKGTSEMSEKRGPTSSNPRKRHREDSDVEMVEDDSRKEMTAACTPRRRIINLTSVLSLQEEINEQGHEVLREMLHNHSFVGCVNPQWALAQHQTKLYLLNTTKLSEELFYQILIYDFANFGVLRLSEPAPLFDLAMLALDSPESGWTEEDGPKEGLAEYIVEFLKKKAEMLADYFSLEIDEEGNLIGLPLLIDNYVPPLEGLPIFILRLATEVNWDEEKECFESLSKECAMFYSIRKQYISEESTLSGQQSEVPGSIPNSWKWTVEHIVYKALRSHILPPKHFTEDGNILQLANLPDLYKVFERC

Row | effect of a mutation on the interaction | Variant
10 | with no effect | E408D

Variants of: B10
Settings: with mipo1_human MIPOL1, Q8TD10

Row | Variant | effect of a mutation on the interaction
11 | D399E | with no effect

Variants of: B11
Settings: with kr109_human KRTAP10-9, P60411

Row | effect of a mutation on the interaction | Variant
12 | disrupting interaction strength | C16Y
